Measurements from patent publication US20110151530.

Tested on: IcmBmp, icmB gene product of Methylibium petroleiphilum (subunit of hydroxyisobutyryl-CoA mutase)

B1: IcmAmp, icmA gene product of Methylibium petroleiphilum (subunit of hydroxyisobutyryl-CoA mutase) (enzyme)
chain: MTWLEPQIKSQLQSERKDWEANEVGAFLKKAPERKEQFHTIGDFPVQRTYTAADIADTPLEDIGLPGRYPFTRGPYPTMYRSRTWTMRQIAGFGTGEDTNKRFKYLIAQGQTGISTDFDMPTLMGYDSDHPMSDGEVGREGVAIDTLADMEALLADIDLEKISVSFTINPSAWILLAMYVALGEKRGYDLNKLSGTVQADILKEYMAQKEYIYPIAPSVRIVRDIITYSAKNLKRYNPINISGYHISEAGSSPLQEAAFTLANLITYVNEVTETGMHVDEFAPRLAFFFVSQGDFFEEVAKFRALRRCYAKIMKERFGAKNPESMRLRFHCQTAAATLTKPQYMVNVVRTSLQALSAVLGGAQSLHTNGYDEAFAIPTEDAMKMALRTQQIIAEESGVADVIDPLGGSYYVEALTTEYEKKIFEILEEVEKRGGTIKLIEQGWFQKQIADFAYETALRKQSGQKPVIGVNRFVENEEDVKIEIHPYDNTTAERQISRTRRVRAERDEAKVQAMLDQLVAVAKDESQNLMPLTIELVKAGATMGDIVEKLKGIWGTYRETPVF
B1 was tested, and the Activity of purified enzyme (mUI/mg): Hydroxyisobutyryl-CoA mutase (with 3-Hydroxybutyryl-CoA 1 mM in aerobic conditions) was 2 mUI/mg, the Activity of purified enzyme (mUI/mg): Hydroxyisobutyryl-CoA mutase (with 3-Hydroxybutyryl-CoA 1 mM in anaerobic conditions) was 46 mUI/mg and the Activity of purified enzyme (mUI/mg): Hydroxyisobutyryl-CoA mutase (with 3-Hydroxybutyryl-CoA 10 mM in anaerobic conditions) was 223 mUI/mg.
